In IntAct's records for PubMed 20059542:

B1: Ubiquitin domain-containing protein DSK2 (Saccharomyces cerevisiae), P48510 (parent)
chain: MSLNIHIKSGQDKWEVNVAPESTVLQFKEAINKANGIPVANQRLIYSGKILKDDQTVESYHIQDGHSVHLVKSQPKPQTASAAGANNATATGAAAGTGATPNMSSGQSAGFNPLADLTSARYAGYLNMPSADMFGPDGGALNNDSNNQDELLRMMENPIFQSQMNEMLSNPQMLDFMIQSNPQLQAMGPQARQMLQSPMFRQMLTNPDMIRQSMQFARMMDPNAGMGSAGGAASAFPAPGGDAPEEGSNTNTTSSSNTGNNAGTNAGTNAGANTAANPFASLLNPALNPFANAGNAASTGMPAFDPALLASMFQPPVQASQAEDTRPPEERYEHQLRQLNDMGFFDFDRNVAALRRSGGSVQGALDSLLNGDV
B2: Ubiquitin domain-containing protein DSK2 (Saccharomyces cerevisiae), P48510 (parent)
chain: B1 chain
partner: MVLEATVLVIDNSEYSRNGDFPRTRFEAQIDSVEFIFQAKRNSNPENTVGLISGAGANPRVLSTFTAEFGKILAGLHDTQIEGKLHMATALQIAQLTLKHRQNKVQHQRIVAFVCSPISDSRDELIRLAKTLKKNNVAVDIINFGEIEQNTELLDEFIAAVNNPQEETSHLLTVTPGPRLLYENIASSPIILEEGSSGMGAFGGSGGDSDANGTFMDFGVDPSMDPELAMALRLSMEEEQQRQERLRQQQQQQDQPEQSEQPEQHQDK
B3: 26S proteasome regulatory subunit RPN10 (Saccharomyces cerevisiae), P38886 (parent)
chain: B2 partner
partner: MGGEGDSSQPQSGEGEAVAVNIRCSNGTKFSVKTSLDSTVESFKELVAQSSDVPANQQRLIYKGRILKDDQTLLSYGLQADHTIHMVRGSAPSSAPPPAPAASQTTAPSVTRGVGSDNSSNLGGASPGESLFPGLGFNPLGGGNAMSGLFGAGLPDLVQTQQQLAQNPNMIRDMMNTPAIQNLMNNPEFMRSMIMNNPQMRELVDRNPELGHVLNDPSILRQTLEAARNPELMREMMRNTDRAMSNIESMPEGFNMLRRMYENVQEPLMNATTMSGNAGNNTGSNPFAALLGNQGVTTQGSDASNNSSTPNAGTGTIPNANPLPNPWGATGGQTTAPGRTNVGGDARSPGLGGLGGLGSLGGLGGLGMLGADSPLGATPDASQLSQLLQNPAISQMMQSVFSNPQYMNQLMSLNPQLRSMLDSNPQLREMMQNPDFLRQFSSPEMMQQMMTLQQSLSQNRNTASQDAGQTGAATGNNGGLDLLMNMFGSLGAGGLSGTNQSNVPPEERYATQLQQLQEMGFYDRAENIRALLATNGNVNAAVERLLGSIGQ
B4: Ubiquitin domain-containing protein DSK2 (Saccharomyces cerevisiae), P48510 (parent)
chain: B1 chain
partner: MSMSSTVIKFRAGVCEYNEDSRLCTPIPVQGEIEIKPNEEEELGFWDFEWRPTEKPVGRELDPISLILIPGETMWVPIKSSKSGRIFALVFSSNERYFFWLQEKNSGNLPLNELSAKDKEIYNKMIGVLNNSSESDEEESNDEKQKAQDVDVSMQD
B5: UV excision repair protein RAD23 homolog B (Homo sapiens), P54727 (parent)
chain: MQVTLKTLQQQTFKIDIDPEETVKALKEKIESEKGKDAFPVAGQKLIYAGKILNDDTALKEYKIDEKNFVVVMVTKPKAVSTPAPATTQQSAPASTTAVTSSTTTTVAQAPTPVPALAPTSTPASITPASATASSEPAPASAAKQEKPAEKPAETPVATSPTATDSTSGDSSRSNLFEDATSALVTGQSYENMVTEIMSMGYEREQVIAALRASFNNPDRAVEYLLMGIPGDRESQAVVDPPQAASTGAPQSSAVAAAAATTTATTTTTSSGGHPLEFLRNQPQFQQMRQIIQQNPSLLPALLQQIGRENPQLLQQISQHQEHFIQMLNEPVQEAGGQGGGGGGGSGGIAEAGSGHMNYIQVTPQEKEAIERLKALGFPEGLVIQAYFACEKNENLAANFLLQQNFDED

Variants of: B1
Details: with ubc_human UBC
Target sequence in this assay (P0CG48 whole entry, looked up): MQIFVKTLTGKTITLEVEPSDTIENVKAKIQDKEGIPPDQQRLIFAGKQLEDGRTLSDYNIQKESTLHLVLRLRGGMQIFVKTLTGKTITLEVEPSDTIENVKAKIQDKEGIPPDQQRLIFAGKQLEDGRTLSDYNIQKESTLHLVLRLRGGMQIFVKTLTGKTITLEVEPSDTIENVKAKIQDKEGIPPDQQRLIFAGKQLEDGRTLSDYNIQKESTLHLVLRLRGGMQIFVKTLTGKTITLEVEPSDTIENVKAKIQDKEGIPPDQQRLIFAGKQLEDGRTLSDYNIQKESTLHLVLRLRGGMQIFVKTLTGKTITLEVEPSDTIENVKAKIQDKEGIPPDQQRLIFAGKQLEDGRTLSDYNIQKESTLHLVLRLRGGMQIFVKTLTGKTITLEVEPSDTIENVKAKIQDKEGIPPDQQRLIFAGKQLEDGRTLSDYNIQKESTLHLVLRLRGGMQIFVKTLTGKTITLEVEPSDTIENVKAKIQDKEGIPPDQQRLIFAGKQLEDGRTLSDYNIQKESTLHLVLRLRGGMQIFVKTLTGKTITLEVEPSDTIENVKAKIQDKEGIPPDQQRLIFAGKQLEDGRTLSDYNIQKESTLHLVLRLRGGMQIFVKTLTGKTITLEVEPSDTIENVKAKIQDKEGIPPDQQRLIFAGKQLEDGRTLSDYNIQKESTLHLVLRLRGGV

Variant	effect of a mutation on the interaction
M342A;G343A	disrupting interaction strength

Variants of: B2
Details: with rpn10_yeast RPN10, P38886

Variant	effect of a mutation on the interaction
V71A	with no effect
L70A;V71A	disrupting interaction strength
L70A	with no effect
L44A;I45A	disrupting interaction strength
L44A	with no effect
I45A	with no effect

Variants of: B2
Details: with rpn10_yeast RPN10, P38886
Remark: another data set of the same source

Variant	effect of a mutation on the interaction
V71A	disrupting interaction
L70A	disrupting interaction

Variants of: B3
Details: with dsk2b_arath DSK2B

Variant	effect of a mutation on the interaction
L228N;A229N;M230N;A231N;L232N	disrupting interaction strength

Variants of: B4
Details: with rpn13_yeast RPN13, O13563

Variant	effect of a mutation on the interaction
I45A	disrupting interaction

Variants of: B4
Details: with rpn13_yeast RPN13, O13563
Remark: another data set of the same source

Variant	effect of a mutation on the interaction
I45A	disrupting interaction strength
L44A	disrupting interaction strength
L44A;I45A	disrupting interaction strength
L70A	decreasing interaction strength

Second part, the variant after the results:

effect of a mutation on the interaction	Variant
decreasing interaction strength	L70A;V71A
decreasing interaction strength	V71A

Variants of: B4
Details: with rpn13_yeast RPN13, O13563
Remark: another data set of the same source

Variant	effect of a mutation on the interaction
L44A	disrupting interaction

Variants of: B4
Details: with rpn13_yeast RPN13, O13563
Remark: another data set of the same source

Variant	effect of a mutation on the interaction
V71A	decreasing interaction

Variants of: B4
Details: with rpn13_yeast RPN13, O13563
Remark: another data set of the same source

Variant	effect of a mutation on the interaction
L70A	decreasing interaction

Variants of: B5
Details: with psmd4_human PSMD4, P55036

Variant	effect of a mutation on the interaction
L8A	disrupting interaction

Variants of: B5
Details: with ubc_human UBC
Target sequence in this assay (P0CG48 whole entry, looked up): as above

Variant	effect of a mutation on the interaction
M200A;G201A;Y202A	decreasing interaction strength

Variants of: B5
Details: with ubc_human UBC
Remark: another data set of the same source
Target sequence in this assay (P0CG48 whole entry, looked up): as above

Variant	effect of a mutation on the interaction
L376A;G377A;F378A	decreasing interaction strength
